The text below walks through data of patent publication US20080227707A1, “BIOACTIVE PEPTIDES AND UNIQUE IRES ELEMENTS FROM MYELIN PROTEOLIPID PROTEIN PLP/DM20” (WAYNE STATE UNIVERSITY, priority 2002, published 2008).

One data set relates to 293 cells. Briefly: Viability of PIRP expressing cells during MG132-induced cellular stress and apoptosis (Trypan Blue exclusion). Type of data set: cell-based, human. To be noted: 293 control cells = 100%, not statistically significant, n=2. As for the experimental part:
FIGS. 6A-6C are bar graphs showing growth factor activity associated with the PIRP-M and PIRP-L proteins. […] Colony number was determined after calcium phosphate transfection of 293 cells and G418 selection. The control plasmid was pBSII vector comprising the […] but no mammalian selectable marker. The PLP/DM20-GFP Pro-constructs are missing the CMV promoter and the PLP/DM20-GFP M1L vectors contain the Met^1 mutation and are unable to translate the full-length proteolipid proteins (see description of FIGS. 2B-2C). Increase in colony number following PIRP expression was highly stastically significant (Student's t-test). […] Pools of 293 cells derived from the transfectants (see above) were grown in toxic (50 μM) and subtoxic (25 μM) concentrations of MG132 for 24 hrs. Viable cells were identified using Trypan Blue exclusion. […] Subconfluent 293 cultures were treated with CM for 48 hrs and 72 hrs. Total and viable cell numbers were determined using Trypan Blue exclusion and expressed as % of control (293 cells treated with 293 CM) cell number.
Although PIRP expression increased colony number, the biochemical mechanism of this response has yet to be defined. […] After 24 hrs, viable cells were counted (Trypan Blue exclusion) (FIG. 6B).

The subject of the next data set is human 293 cell line. Put plainly: Colony formation assay after transfection and G418 selection. Type of data set: cell-based. To be noted: 293 cells. As for the experimental part:
Transfections were performed in 100×20 mm dishes using the Profection® Mammalian Transfection System—a calcium phosphate transfection kit (Promega, Madison, Wis.). Cells grown to 50-70% confluence were fed 3 hrs prior to addition of the calcium phosphate/DNA mixture. A standard transfection assay contained 15 μg of plasmid DNA, while double transfections were done with 10 μg of each plasmid (20 μg total). The culture medium was removed 24 hrs post transfection and cells were processed for microscopic analysis or passed for G418 or Hygromycin B selection 48 hrs post transfection.
All constitutive expression cell lines were isolated by selection with the G418 antibiotic. 24 hrs after cell passage (see above), transfected 293 and NT2 cells were treated with 500 μg/mL G418 (Invitrogen Life Technologies) in DMEM. The selection medium was changed every second day for 2-2.5 weeks, during which the majority of cells detach and G418 resistant colonies emerge. Depending upon the number and density of colonies, surviving cells were grown for 3-5 days in G418-free medium prior to subcloning. Once colonies reached the appropriate size, each plate was briefly examined for fluorescence, and colonies with the lowest number of nonfluorescent, contaminating cells were marked for subcloning. […]

The test system of data set [1] is 293, NT2, and 293-Tet-On cell lines. Briefly: Proteasome inhibition assay, MG132-induced cell death. Format: cell-based, human. The following applies: 50 μM MG132, 24 hrs. As for the experimental part:
Proteasome inhibition assays were carried out in stably transfected cell lines using MG132 (Z-Leu-Leu-Leucinal)—a potent, cell permeable inhibitor of the 26S proteasomal complex (Calbiochem, San Diego, Calif.). The MG132 concentration in all experiments (50 μM) was sufficient to insure 100% cell death of all 293, NT2, and 293-Tet-On cell lines in 24 hrs.
To confirm that 293 and NT2 cultures undergo apoptosis within 24 hrs post treatment with 50 μM MG132, cells were assayed for poly(ADP-ribose) polymerase (PARP) cleavage by caspase-3. The 293 and NT2cultures were grown in 100 mm dishes to ˜90% confluence and passed at equal density into a six well tray. At 70-80% confluence, wells were treated with 50 μM MG132 in DMEM and harvested for proteins at 0.5 hrs, 1 hr, 2 hrs, 4 hrs, 6 hrs, and 24 hrs after treatment. The PARP cleavage products were resolved on 4% SDS PAGE gels. The Western blots were incubated with an anti-PARP (BIOMOL Research Laboratories) primary antibody diluted 1:2000 in 3% BSA, and a HRP conjugated goat anti-mouse secondary antibody (Amersham) diluted 1:2500 in 3% BSA.

Peptide text beside a SMILES is read from it. * marks the point of attachment. Cbz = O=C(OCc1ccccc1)*

For “PIRP-L: ~7 kDa polypeptide translated from Met234 of PLP/DM20 mRNA via IRES; SEQ ID NO:8 (MTFHLFIAAFVGAAATLVSLLTFMIAATYNFAVLKLMGRGTKF; listed as Homo sapiens)”, the “cellular viability (viable cell number), % of control cell lines” value is reported as “small increase in viability” in the data set with 293 cells (MG132-treated, 25 μM and 50 μM, 24 hrs); “not detected” in the data set on 293 cells (untreated cells). Also, the “colony count in PIRP-L transfectants compared to PIRP-M transfectants” value in the data set with human 293 cell line (p=0.02) is “increased colony count”.
In turn, `CC(C)C[C@@H](C=O)NC(=O)[C@H](CC(C)C)NC(=O)[C@H](CC(C)C)NC(=O)OCc1ccccc1` [MG132, Z-Leu-Leu-Leucinal] (Cbz-Leu-Leu-Leu-aldehyde) had a cell death in data set [1] of 100%.

B1: PIRP-M: ~10 kDa polypeptide translated from Met205 of PLP/DM20 mRNA via IRES; SEQ ID NO:6 (protein, listed as Homo sapiens)
chain: MYGVLPWNAFPGKVCGSNLLSICKTAEFQMTFHLFIAAFVGAAATLVSLLTFMIAATYNFAVLKLMGRGTKF
As for B1, in the data set on human 293 cell line (calcium phosphate transfection, G418 selection, colonies grown 2 weeks, vs pBSII PIRP-M control DNA lacking G418 resistance), the “increase in colony number over controls” value is reported as 600-700 fold.
